# Measurements taken from US20200247889A1 (published 2020).
# T1: cynomolgus TREM1 (cynomolgus, UniProt A0A2K5VHG8 21-233)
# T1 chain: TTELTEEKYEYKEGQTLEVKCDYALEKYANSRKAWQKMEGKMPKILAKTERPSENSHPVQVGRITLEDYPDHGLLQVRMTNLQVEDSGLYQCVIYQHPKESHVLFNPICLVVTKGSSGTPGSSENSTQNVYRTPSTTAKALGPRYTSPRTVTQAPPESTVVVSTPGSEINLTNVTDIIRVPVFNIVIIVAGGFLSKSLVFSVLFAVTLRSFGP
# T2: mouse TREM1 (mouse, UniProt Q9JKE2 21-230)
# T2 chain: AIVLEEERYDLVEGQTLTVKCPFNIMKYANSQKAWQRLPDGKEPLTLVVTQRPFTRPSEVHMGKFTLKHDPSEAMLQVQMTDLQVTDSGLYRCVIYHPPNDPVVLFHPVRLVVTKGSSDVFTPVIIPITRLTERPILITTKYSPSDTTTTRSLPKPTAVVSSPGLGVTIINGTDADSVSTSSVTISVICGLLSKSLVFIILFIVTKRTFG
# B1: Protein binding (receptor)
# chain: T2 chain
# B2: mAb0170 (antibody, V domains shown)
# VH: EVQLVESGGGLVQPGGSLKLSCAASGFTFSTYAMHWVRQASGKGLEWVGRIRTKSSNYATYYAASVKGRFTISRDDSKNTAYLQMNSLKTEDTAVYYCTRDMGIRRQFAYWGQGTLVTVSS
# VL: DIVLTQSPDSLAVSLGERATINCRASESVDTFDYSFLHWYQQKPGQPPKLLIYRASNLESGVPDRFSGSGSGTDFTLTISSLQAEDVAVYYCQQSNEDPYTFGQGTKLEIK
# B3: Pi-9067L (antibody, V domains shown)
# VH: EVQLVESGGGLVQPGGSLRLSCAASGFDIYSYSIHWVRQAPGKGLEWVAYIYPSYGYTSYADSVKGRFTISADTSKNTAYLQMNSLRAEDTAVYYCARGAVAALDYWGQGTLVTVSS
# VL: DIQMTQSPSSLSASVGDRVTITCRASQSVSSAVAWYQQKPGKAPKLLIYSASSLYSGVPSRFSGSRSGTDFTLTISSLQPEDFATYYCQQYGVSGYSLITFGQGTKVEIKR
# B4: afucosylated Pi-9067L (antibody, V domains shown)
# VH: B3 VH
# VL: B3 VL
# modifications: afucosylated Fc glycan
# B5: afucosylated Pi-4928 (antibody, V domains shown)
# VH: QVQLKESGPGLVQPSQTLSLTCTVSGFSITSSNVYWFRQPPGKGLEWMGNIWGDGSTDYNSSLKSRLTLSRDTSKNQVFLKINSLQSEDTATYFCTRSWEYYFDHWGQGVVVTVSS
# VL: DIVLTQSPALAVSPGQRATLSCRASQSVTLSNVNLMNWYQQKPGQQPKLLIYHASNLASGIPTRFSGSGSGTDFTLTIDPVQADDIAAYYCQQSGESPRTFGGGTKVELKR
# modifications: afucosylated Fc glycan
# B6: Pi-4928 (antibody, V domains shown)
# VH: B5 VH
# VL: B5 VL
# B7: Pi-9772 (antibody, V domains shown)
# VH: EVQLVESGGGLVQPGGSLRLSCAASGFDLSYSSMHWVRQAPGKGLEWVAYISPYSGYTSYADSVKGRFTISADTSKNTAYLQMNSLRAEDTAVYYCARHGSWSYGFSSGFDYWGQGTLVTVSS
# VL: DIQMTQSPSSLSASVGDRVTITCRASQSVSSAVAWYQQKPGKAPKLLIYSASSLYSGVPSRFSGSRSGTDFTLTISSLQPEDFATYYCQQYAYYYPITFGQGTKVEIKR
# B8: afucosylated Pi-9772 (antibody, V domains shown)
# VH: B7 VH
# VL: B7 VL
# modifications: afucosylated Fc glycan
# Target: 9067s
# Assay: SPR
row,Binder,Kd
1,B1,0.87 nM

# Target: T1, cynomolgus TREM1
# Assay: cell binding
row,Binder,EC50
1,B2,0.13 nM

# Target: T2, mouse TREM1
# Assay: cell binding
row,Binder,EC50
1,B3,1.85 nM
2,B4,2.9 nM
3,B5,2.32 nM
4,B6,1.41 nM
5,B7,2.85 nM
6,B8,6.35 nM

# Target: T2, mouse TREM1
# Assay: SPR (Biacore); avid
row,Binder,Kd
1,B3,0.09 nM
2,B4,0.15 nM
3,B5,0.11 nM
4,B6,0.11 nM
5,B7,0.15 nM
6,B8,0.71 nM

# Target: T1, cynomolgus TREM1
# Assay: flow cytometry cell binding
row,Binder,EC50
1,B2,0.13 nM

# Target: T2, mouse TREM1
# Assay: cell binding; BALB/c splenocyte neutrophils
row,Binder,EC50
1,B3,0.98 nM
2,B6,1.36 nM
3,B7,6.83 nM
